Results as given in US20170174769A1 (Regeneron, published 2017).
Values joined by “and” are separate entries in the source; they are usually repeats but may differ in a detail not shown here. Equal entries are not always repeated. Where two headings read alike, the source gives them in different places.

T1: recombinant cynomolgus monkey FGF21 with an N-terminal hexahistidine tag (cynomolgus monkey)
T1 construct: also called His6-MfFGF21; mfFGF21
T1 chain: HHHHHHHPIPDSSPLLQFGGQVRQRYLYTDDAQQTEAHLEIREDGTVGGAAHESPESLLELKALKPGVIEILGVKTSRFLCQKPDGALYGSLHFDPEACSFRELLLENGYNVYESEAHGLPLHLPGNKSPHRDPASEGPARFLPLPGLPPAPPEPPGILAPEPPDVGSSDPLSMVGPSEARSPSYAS

T2: biotinylated human FGF21 expressed with a N-terminal hexahistidine tag (human, UniProt Q9NSA1 29-209, biotinylated (site not stated))
T2 construct: also called biotin-6His-hFGF21; biotin 6His-hFGF21
T2 sequence: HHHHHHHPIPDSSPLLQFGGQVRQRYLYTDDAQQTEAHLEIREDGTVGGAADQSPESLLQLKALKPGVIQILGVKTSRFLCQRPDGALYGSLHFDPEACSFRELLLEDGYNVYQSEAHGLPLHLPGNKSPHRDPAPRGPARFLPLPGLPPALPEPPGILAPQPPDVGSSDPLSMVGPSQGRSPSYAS

T3: mouse FGF21 (mouse, UniProt Q9JJN1 29-210)
T3 construct: also called mFGF21 (Prospec, # CYT-339)
T3 sequence (looked up): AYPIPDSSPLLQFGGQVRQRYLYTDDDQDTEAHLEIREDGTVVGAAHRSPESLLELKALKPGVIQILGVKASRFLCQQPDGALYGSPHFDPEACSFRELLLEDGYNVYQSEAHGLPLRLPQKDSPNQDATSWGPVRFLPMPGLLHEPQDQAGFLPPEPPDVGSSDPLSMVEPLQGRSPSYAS

T4: rat FGF21 (rat, UniProt A0A7U3JW68 29-208)
T4 sequence: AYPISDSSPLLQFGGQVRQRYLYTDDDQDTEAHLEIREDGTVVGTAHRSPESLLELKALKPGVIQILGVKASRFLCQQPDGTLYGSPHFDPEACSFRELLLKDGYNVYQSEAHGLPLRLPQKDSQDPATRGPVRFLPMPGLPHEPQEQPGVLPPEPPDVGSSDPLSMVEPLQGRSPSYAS

B1: H2M6509N (antibody, V domains shown)
VH: EVQLVESGGGLVKPGGSLRLSCAASGFTFSNAWMSWVRQAPGKGLDWVGRIKNKLDGGTTDYAAPVKGRFTISRDDSKNTLYLQMNSLKTEDTAVYYCTTDHGWNYYYGMDVWGQGTTVTVSS
VL: DIQMTQSPSSLSASVGDRVTITCRASQDISNYLAWFQHKPGKAPKSLIYAASSLQGGVPSKFSGSGSGTDFTLTISSLQPEDFATYYCQQYNTYPPTFGAGTKVEIK
notes: mouse IgG2 Fc (H2M prefix); also called H2aM6509N
B2: recombinant human FGF21 expressed with an N-terminal hexahistidine tag (ligand)
chain: T2 sequence
B3: H4H6915P (antibody, V domains shown)
VH: QVQLVESGGGVVQPGRSLRLSCAASGFTFSSYVMHWVRQAPGKGLEWVSVISYDGGNKYYADSVKGRFTISRDNSKNTLDLQMNSLRAEDTAVYYCAKEDDYIWGGFFDLWGRGTLVTVSS
VL: DIQMTQSPSSLSASVGDRVTITCRASQGIRNDLGWYQKKPGKAPKRLISAAYSLQSGVTSRFSGSGSGTEFTLTISSLQPEDFATYYCLQHNSYPWTFGQGTKVEIK
notes: human IgG4 Fc (H4H prefix)
B4: H2M6499N (antibody, V domains shown)
VH: QVHLVQSGAEVKKPGASVKVSCKASGYSFTDYYVHWVRQAPGQGLEWMGWFNPKSGDTNSVQKFQGRVSMTGDTSITTAYLDLRRLTSDDTAVYYCGRSGYFDFWGQGTLVTVSS
VL: DVVMTQSPLSLSVTLGQPASISCRSSQSLVFSDGNTFLNWFQQRPGQSPRRLIYNLSNRDSGVPDRFSGSGSGTDFTLKISGVEAEDVGVYYCMQGTHWPLTFGGGTKVEIK
notes: human variable domains, mouse IgG2 Fc (H2M prefix); also called H2aM6499N
B5: H4H6879P (antibody, V domains shown)
VH: QVQLQESGPGLVKPSETLSLTCTVSGGSISGYYWSWIRQPPGKGLEWIGYFYNSGSTNYNPSLKSRVTMSVDTSKNQFSLRLTSVTAADTAVYYCTRERELLYFDYWGQGTLVTVSS
VL: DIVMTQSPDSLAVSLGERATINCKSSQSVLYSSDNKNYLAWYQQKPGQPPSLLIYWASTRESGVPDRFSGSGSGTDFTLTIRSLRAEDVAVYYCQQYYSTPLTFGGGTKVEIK
notes: human IgG4 Fc (H4H prefix)
B6: H2M6504N (antibody, V domains shown)
VH: EVHLVESGGGLVQPGRSLRLSCVASGFTFDDYAMHWVRQVPGKGLEWVSVITWNSGSIGYADSVKGRFTISRDNAKNSLFLQVSSLRAEDTALYYCAKGISPTGTTPDYWGQGTLVTVSS
VL: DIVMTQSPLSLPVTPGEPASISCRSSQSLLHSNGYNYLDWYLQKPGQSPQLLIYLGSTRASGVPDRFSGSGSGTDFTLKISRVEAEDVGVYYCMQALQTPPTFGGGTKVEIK
notes: mouse IgG2 Fc (H2M prefix); also called H2aM6504N
B7: H4H6504N (antibody, V domains shown)
VH: B6 VH
VL: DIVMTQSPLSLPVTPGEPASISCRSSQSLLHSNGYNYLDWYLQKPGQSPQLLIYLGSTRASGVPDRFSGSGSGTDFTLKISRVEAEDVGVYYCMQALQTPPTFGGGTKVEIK
notes: 6504N variable domains on human IgG4 Fc (H4H prefix)

What was measured:
[1] = target: B2; experiment: cell-based or functional assay
[2] = target: B2; experiment: SPR Biacore 4000, mAb captured, 25 C
Method: (§1) Antibodies were captured on a goat anti-mouse IgG polyclonal antibody (GE Healthcare, BR-1008-38) surface created through direct amine coupling of the anti-IgG antibodies to a Biacore CM5 sensor chip. Kinetic experiments were carried out using HBS-EP (10 mM HEPES, 150mM NaCl, 3 mM EDTA, 0.05% Surfactant P20, pH 7.4) as both the running buffer and the sample buffer. […] Antibody-antigen association was monitored for 180 seconds while dissociation in buffer was monitored for 300 seconds. Kinetic association (kₐ) and dissociation (kd) rate constants were determined by processing and fitting the data using Scrubber software version 2.0c. Binding dissociation equilibrium constants (KD) and dissociative half-lives (t_{1/2}) were calculated from the kinetic rate constants as: KD =kd/kₐ and t112 =In(2)/kd.

[3] = target: T1, recombinant cynomolgus monkey FGF21 …; experiment: SPR Biacore 4000, mAb captured, 25 C
Method: as §1

[4] = target: B2; experiment: SPR Biacore 4000, mAb captured, 37 C
Method: as §1

[5] = target: T1, recombinant cynomolgus monkey FGF21 …; experiment: SPR Biacore 4000, mAb captured, 37 C
Method: as §1

[6] = target: T2, biotinylated human FGF21 expressed with …; experiment: competition ELISA: mAb blocks 300 pM biotin-6His-hFGF21 binding to coated hKLB-10his
Method: The ability of anti-FGF21 antibodies to block human FGF21 binding to a cognate binding partner human klotho beta was evaluated with an ELISA-based immunoassay. Briefly, human klotho beta (hKLB-10his; R&D systems, #5889-KB-050) was coated at 2μg/mL on a 96-well plate in PBS buffer overnight at 4° C. […] The equilibrated sample solutions were then transferred to hKLB-10his-coated plates. […] Samples were developed with a TMB solution to produce a colorimetric reaction and then neutralized with 1M sulfuric acid before measuring absorbance at 450 nm on a Victor plate reader. Data analysis was performed using a sigmoidal dose-response model within Prism™ software (GraphPad).
The absorbance values of the wells containing the highest concentration for each antibody were used to determine the percent maximum blockade.

[7] = target: T5, human KLB and human FGFR1c co-expressed on HEK293/hKLB/hFGFR1c/SRE-luc cells (human, UniProt Q86Z14 1-1044; P11362 22-822); experiment: cell-based or functional assay
T5 sequence (Q86Z14 whole entry, chain 1 of 2): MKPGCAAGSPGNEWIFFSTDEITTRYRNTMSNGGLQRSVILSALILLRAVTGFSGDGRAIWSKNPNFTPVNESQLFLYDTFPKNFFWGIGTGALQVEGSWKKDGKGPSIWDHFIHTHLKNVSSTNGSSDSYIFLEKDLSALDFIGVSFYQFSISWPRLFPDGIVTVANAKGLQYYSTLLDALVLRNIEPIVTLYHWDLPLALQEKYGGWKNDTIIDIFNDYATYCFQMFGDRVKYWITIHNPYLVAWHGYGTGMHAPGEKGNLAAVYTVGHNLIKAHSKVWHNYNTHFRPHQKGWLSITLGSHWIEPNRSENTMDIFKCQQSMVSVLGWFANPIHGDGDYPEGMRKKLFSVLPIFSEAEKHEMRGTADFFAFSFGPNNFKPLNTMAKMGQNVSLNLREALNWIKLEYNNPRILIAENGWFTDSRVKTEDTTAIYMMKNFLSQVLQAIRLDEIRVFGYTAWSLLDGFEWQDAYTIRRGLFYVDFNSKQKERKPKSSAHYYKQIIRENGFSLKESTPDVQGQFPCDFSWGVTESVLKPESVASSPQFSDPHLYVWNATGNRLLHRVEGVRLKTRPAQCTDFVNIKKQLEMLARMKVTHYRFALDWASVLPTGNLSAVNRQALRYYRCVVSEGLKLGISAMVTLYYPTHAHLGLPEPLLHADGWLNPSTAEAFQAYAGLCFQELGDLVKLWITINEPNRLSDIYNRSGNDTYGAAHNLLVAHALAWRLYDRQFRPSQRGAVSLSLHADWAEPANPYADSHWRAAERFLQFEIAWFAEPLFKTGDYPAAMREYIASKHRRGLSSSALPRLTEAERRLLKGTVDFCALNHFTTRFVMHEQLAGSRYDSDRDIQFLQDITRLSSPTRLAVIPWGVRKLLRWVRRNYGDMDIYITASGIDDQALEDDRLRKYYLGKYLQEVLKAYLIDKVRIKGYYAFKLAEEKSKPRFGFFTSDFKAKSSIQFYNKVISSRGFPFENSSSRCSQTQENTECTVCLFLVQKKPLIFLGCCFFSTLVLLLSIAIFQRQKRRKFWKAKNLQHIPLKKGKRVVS
T5 sequence (P11362 other isoform, or with tags, fused parts or gaps limits assumed, chain 2 of 2): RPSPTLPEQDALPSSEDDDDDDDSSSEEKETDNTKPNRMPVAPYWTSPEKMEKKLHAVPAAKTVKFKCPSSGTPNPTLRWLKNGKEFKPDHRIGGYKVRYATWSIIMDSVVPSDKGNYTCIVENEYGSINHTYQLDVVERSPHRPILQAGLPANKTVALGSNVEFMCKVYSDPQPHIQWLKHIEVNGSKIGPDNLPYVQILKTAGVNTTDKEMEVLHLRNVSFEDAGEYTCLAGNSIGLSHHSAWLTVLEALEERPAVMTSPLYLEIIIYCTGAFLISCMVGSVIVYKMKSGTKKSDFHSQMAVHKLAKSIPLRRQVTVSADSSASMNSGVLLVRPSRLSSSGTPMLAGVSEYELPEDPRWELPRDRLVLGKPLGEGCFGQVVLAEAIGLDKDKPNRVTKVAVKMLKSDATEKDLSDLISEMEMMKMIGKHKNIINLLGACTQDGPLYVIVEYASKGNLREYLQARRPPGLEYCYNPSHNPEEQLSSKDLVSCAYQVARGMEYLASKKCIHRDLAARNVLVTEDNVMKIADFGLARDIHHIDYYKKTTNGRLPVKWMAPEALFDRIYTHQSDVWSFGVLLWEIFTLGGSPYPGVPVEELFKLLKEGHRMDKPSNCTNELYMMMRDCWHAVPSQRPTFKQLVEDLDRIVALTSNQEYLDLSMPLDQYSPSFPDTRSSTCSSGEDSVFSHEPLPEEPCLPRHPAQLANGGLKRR

[8] = target: mouse KLB and mouse FGFR1c co-expressed on HEK293/mKLB/mFGFR1c/SRE-Luc cells (mouse); experiment: cell-based or functional assay
[9] = target: T5, human KLB and human FGFR1c co-expressed …; experiment: cell-based or functional assay; remark: listed apart in the source
[10] = target: T5, human KLB and human FGFR1c co-expressed …; experiment: cell-based or functional assay; remark: listed apart in the source
[11] = target: T6, cell-surface human FGFR1c (amino acids 1-731 of NP_075594) with cell-surface human KLB on … (human, UniProt P11362 22-822); experiment: cell-based or functional assay
T6 sequence (P11362 22-822, chain 1 of 2): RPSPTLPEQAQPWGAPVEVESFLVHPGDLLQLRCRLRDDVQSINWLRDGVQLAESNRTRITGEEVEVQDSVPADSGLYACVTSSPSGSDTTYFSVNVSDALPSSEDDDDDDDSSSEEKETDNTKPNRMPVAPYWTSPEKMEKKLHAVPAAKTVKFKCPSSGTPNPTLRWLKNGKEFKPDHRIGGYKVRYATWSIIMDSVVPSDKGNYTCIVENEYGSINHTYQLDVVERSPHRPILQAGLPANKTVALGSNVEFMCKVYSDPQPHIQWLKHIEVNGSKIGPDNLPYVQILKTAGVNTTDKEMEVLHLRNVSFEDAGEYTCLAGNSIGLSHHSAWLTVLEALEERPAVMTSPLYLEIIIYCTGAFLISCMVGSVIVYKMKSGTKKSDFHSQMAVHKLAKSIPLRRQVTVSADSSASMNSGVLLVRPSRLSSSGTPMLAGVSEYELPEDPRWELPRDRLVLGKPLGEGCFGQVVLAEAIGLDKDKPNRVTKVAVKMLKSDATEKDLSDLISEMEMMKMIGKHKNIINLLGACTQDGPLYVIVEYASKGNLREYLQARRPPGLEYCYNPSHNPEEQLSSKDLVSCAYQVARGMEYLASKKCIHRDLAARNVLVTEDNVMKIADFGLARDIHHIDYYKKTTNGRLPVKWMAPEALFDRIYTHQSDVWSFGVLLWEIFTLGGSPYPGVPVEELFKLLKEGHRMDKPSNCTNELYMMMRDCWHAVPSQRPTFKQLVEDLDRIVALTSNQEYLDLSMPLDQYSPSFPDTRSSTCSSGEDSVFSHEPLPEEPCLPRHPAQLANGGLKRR
T6 sequence (chain, as listed by the source, chain 2 of 2): as the sequence (Q86Z14 whole entry, chain 1 of 2) above

[12] = target: T6, cell-surface human FGFR1c (amino acids …); experiment: cell-based or functional assay; remark: listed apart in the source
mouse FGF21 = target: T3, mouse FGF21; experiment: not described
rat FGF21 = target: T4, rat FGF21; experiment: not described

| IC50, inhibition of 1 nM FGF21 activation of 293/hKLB/FGFR1c/SRE-Luc cells [1] | Kd [2] | koff [2] | kon [2] | t1/2 [2] | Kd [3] | koff [3] | kon [3] | t1/2 [3] | Kd [4] | koff [4] | kon [4] | t1/2 [4] | Kd [5] | koff [5] | kon [5] | t1/2 [5] | % Blocking at 100 nM Antibody Concentration [6] | IC50 [6] | binding result (mouse FGF21) | Binder | further results |
| --- | --- | --- | --- | --- | --- | --- | --- | --- | --- | --- | --- | --- | --- | --- | --- | --- | --- | --- | --- | --- | --- |
| 9.1 nM | 26.6 nM | 0.00297 s⁻¹ | 111000 M⁻¹ s⁻¹ | 3.9 min | 47.6 nM | 0.00316 s⁻¹ | 66000 M⁻¹ s⁻¹ | 3.7 min | 58.9 nM | 0.0139 s⁻¹ | 236000 M⁻¹ s⁻¹ | 0.8 min | 109 nM | 0.0142 s⁻¹ | 130000 M⁻¹ s⁻¹ | 0.8 min | 31% | > 100 nM | – | B1 | – |
| – | – | – | – | – | – | – | – | – | – | – | – | – | – | – | – | – | – | – | – | B2 | EC50, SRE-luc activation by ligand [7]: 1.9 nM; EC50, SRE-luc activation [8]: 0.41 nM; EC50, SRE-luc activation by ligand [9]: 0.73 nM and 1.4 nM; EC50, SRE-luc activation by ligand [10]: 2.4 nM and 2.2 nM; % Activation [11]: 100%; EC50, SRE-luc activation [11]: 1.1 nM; % Activation [12]: 100%; EC50, SRE-luc activation [12]: 1.4 nM |
| 0.5 nM | – | – | – | – | – | – | – | – | – | – | – | – | – | – | – | – | 8% | – | no binding | B3 | binding result (rat FGF21): no binding |
| 11 nM | 19.2 nM | 0.00669 s⁻¹ | 349000 M⁻¹ s⁻¹ | 1.7 min | 23.2 nM | 0.00578 s⁻¹ | 250000 M⁻¹ s⁻¹ | 2 min | 41.1 nM | 0.0212 s⁻¹ | 516000 M⁻¹ s⁻¹ | 0.5 min | 46.5 nM | 0.015 s⁻¹ | 323000 M⁻¹ s⁻¹ | 0.8 min | 98% | 0.076 nM | – | B4 | – |
| 1.3 nM | – | – | – | – | – | – | – | – | – | – | – | – | – | – | – | – | 34% | > 100 nM | no binding | B5 | binding result (rat FGF21): no binding |
| 1 nM | 2.3 nM | 0.00197 s⁻¹ | 860000 M⁻¹ s⁻¹ | 5.9 min | 37.2 nM | 0.0237 s⁻¹ | 640000 M⁻¹ s⁻¹ | 0.5 min | 4.4 nM | 0.00549 s⁻¹ | 1.25e+06 M⁻¹ s⁻¹ | 2.1 min | 64 nM | 0.053 s⁻¹ | 820000 M⁻¹ s⁻¹ | 0.2 min | 64% | – | – | B6 | – |
| – | – | – | – | – | – | – | – | – | – | – | – | – | – | – | – | – | – | – | no binding | B7 | binding result (rat FGF21): no binding |
